Data as given in paper PMC6056499, “A systematic dissection of sequence elements determining β-Klotho and FGF interaction and signaling” (Scientific Reports, 2018).

Tests used:
[1] = biological target: human β-Klotho extracellular domain (aa1–992) fused with a 6 × His tag at the C-terminus (UniProt Q86Z14); assay: AlphaScreen; conditions: parent: est. 1.0, read off a plot
mature human FGF21 = mature human FGF21 (UniProt Q9NSA1); assay: solid-phase binding assay; conditions: β-Klotho captured from conditioned media; parent: est. 1.0; read off a plot
[2] = competition with FGF19 for β-Klotho
[3] = competition with FGF21 for β-Klotho

Sequence of human β-Klotho extracellular domain (aa1–992) fused with a 6 × His tag at the C-terminus (Q86Z14 53-992): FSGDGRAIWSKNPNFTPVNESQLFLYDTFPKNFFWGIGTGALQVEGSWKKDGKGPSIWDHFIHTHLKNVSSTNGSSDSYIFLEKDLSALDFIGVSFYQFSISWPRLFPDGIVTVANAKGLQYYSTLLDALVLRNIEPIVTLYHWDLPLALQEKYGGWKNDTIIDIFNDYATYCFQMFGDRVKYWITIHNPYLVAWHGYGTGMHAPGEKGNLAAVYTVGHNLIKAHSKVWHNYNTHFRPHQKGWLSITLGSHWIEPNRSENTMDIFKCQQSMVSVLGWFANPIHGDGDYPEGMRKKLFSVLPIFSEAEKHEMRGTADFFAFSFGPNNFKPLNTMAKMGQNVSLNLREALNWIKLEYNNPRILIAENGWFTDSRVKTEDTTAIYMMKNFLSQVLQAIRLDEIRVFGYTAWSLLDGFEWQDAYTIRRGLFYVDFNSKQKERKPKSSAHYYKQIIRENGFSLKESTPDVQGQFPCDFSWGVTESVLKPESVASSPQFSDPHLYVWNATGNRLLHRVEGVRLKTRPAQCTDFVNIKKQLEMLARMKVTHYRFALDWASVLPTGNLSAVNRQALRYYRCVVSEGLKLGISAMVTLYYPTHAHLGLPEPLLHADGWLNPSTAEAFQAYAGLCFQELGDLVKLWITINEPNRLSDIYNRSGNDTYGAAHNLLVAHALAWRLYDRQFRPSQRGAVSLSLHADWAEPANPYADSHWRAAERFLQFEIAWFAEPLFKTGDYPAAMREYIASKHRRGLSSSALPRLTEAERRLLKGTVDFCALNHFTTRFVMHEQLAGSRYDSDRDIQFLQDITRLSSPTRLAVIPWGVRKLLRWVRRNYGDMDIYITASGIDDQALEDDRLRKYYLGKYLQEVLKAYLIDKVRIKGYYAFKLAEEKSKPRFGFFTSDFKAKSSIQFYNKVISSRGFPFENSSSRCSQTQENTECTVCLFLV
Sequence of FGF19 C-terminal peptide, WT FGF19^185–216 (from UniProt O95750) 195D-A (O95750 185-216, change not shown): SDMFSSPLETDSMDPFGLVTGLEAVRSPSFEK
Sequence of FGF19 C-terminal peptide, WT FGF19^185–216 (from UniProt O95750) 196S-A (O95750 185-216, change not shown): as above
Sequence of FGF19 C-terminal peptide, WT FGF19^185–216 (from UniProt O95750) 204T-A (O95750 185-216, change not shown): as above
Sequence of FGF19 C-terminal peptide, WT FGF19^185–216 (from UniProt O95750) 205G-A (O95750 185-216, change not shown): as above
Sequence of FGF19 C-terminal peptide, WT FGF19^185–216 (from UniProt O95750) 197M-A (O95750 185-216, change not shown): as above
Sequence of FGF19 C-terminal peptide, WT FGF19^185–216 (from UniProt O95750) 216K-A (O95750 185-216, change not shown): as above
Sequence of FGF19 C-terminal peptide, WT FGF19^185–216 (from UniProt O95750) 201G-A (O95750 185-216, change not shown): as above
Sequence of FGF19 C-terminal peptide, WT FGF19^185–216 (from UniProt O95750) 215E-A (O95750 185-216, change not shown): as above
Sequence of FGF19 C-terminal peptide, WT FGF19^185–216 (from UniProt O95750) 203V-A (O95750 185-216, change not shown): as above
Sequence of FGF19 C-terminal peptide, WT FGF19^185–216 (from UniProt O95750) 207E-A (O95750 185-216, change not shown): as above
Sequence of FGF19 C-terminal peptide, WT FGF19^185–216 (from UniProt O95750) 209V-A (O95750 185-216, change not shown): as above
Sequence of FGF19 C-terminal peptide, WT FGF19^185–216 (from UniProt O95750) 210R-A (O95750 185-216, change not shown): as above
Sequence of FGF19 C-terminal peptide, WT FGF19^185–216 (from UniProt O95750) 206L-A (O95750 185-216, change not shown): as above
Sequence of FGF19 C-terminal peptide, WT FGF19^185–216 (from UniProt O95750) 194T-A (O95750 185-216, change not shown): as above
Sequence of FGF19 C-terminal peptide, WT FGF19^185–216 (from UniProt O95750) 214F-A (O95750 185-216, change not shown): as above
Sequence of FGF19 C-terminal peptide, WT FGF19^185–216 (from UniProt O95750) 213S-A (O95750 185-216, change not shown): as above

Row | Substance | ratio to parent [1, 2] | ratio to parent [1, 3] | ratio to parent (mature human FGF21)
1 | FGF19 C-terminal peptide, WT FGF19^185–216 (from UniProt O95750) 194T-A | 2.1 | 1.4 | –
2 | FGF19 C-terminal peptide, WT FGF19^185–216 (from UniProt O95750) 195D-A | 5.5 | 4.5 | –
3 | FGF19 C-terminal peptide, WT FGF19^185–216 (from UniProt O95750) 196S-A | 9.8 | 13 | –
4 | FGF19 C-terminal peptide, WT FGF19^185–216 (from UniProt O95750) 197M-A | 0.8 | 0.3 | –
5 | FGF19 C-terminal peptide, WT FGF19^185–216 (from UniProt O95750) 201G-A | 19 | 20 | –
6 | FGF19 C-terminal peptide, WT FGF19^185–216 (from UniProt O95750) 203V-A | 3.8 | 5.5 | –
7 | FGF19 C-terminal peptide, WT FGF19^185–216 (from UniProt O95750) 204T-A | 1.6 | 3.2 | –
8 | FGF19 C-terminal peptide, WT FGF19^185–216 (from UniProt O95750) 205G-A | 1.3 | 1.4 | –
9 | FGF19 C-terminal peptide, WT FGF19^185–216 (from UniProt O95750) 206L-A | 0.9 | 0.8 | –
10 | FGF19 C-terminal peptide, WT FGF19^185–216 (from UniProt O95750) 207E-A | 0.6 | 1.1 | –
11 | FGF19 C-terminal peptide, WT FGF19^185–216 (from UniProt O95750) 209V-A | 0.6 | 0.6 | –
12 | FGF19 C-terminal peptide, WT FGF19^185–216 (from UniProt O95750) 210R-A | 1.2 | 1.4 | –
13 | FGF19 C-terminal peptide, WT FGF19^185–216 (from UniProt O95750) 213S-A | 90 | – | –
14 | FGF19 C-terminal peptide, WT FGF19^185–216 (from UniProt O95750) 214F-A | 220 | – | –
15 | FGF19 C-terminal peptide, WT FGF19^185–216 (from UniProt O95750) 215E-A | 7 | 5.2 | –
16 | FGF19 C-terminal peptide, WT FGF19^185–216 (from UniProt O95750) 216K-A | 0.2 | 0.2 | –
17 | human β-Klotho extracellular domain (aa1–992) fused with a 6 × His tag at the C-terminus (from UniProt Q86Z14) 380K-A | – | – | 35
18 | human β-Klotho extracellular domain (aa1–992) fused with a 6 × His tag at the C-terminus (from UniProt Q86Z14) 381P-A | – | – | 5
19 | human β-Klotho extracellular domain (aa1–992) fused with a 6 × His tag at the C-terminus (from UniProt Q86Z14) 381P-R | – | – | 21
20 | human β-Klotho extracellular domain (aa1–992) fused with a 6 × His tag at the C-terminus (from UniProt Q86Z14) 389G-A | – | – | 30
21 | human β-Klotho extracellular domain (aa1–992) fused with a 6 × His tag at the C-terminus (from UniProt Q86Z14) 389G-R | – | – | 3.5
22 | human β-Klotho extracellular domain (aa1–992) fused with a 6 × His tag at the C-terminus (from UniProt Q86Z14) 431T-R | – | – | 10
23 | human β-Klotho extracellular domain (aa1–992) fused with a 6 × His tag at the C-terminus (from UniProt Q86Z14) 437K-A | – | – | 270
24 | human β-Klotho extracellular domain (aa1–992) fused with a 6 × His tag at the C-terminus (from UniProt Q86Z14) 437K-R | – | – | 5
25 | human β-Klotho extracellular domain (aa1–992) fused with a 6 × His tag at the C-terminus (from UniProt Q86Z14) 531E-A | – | – | 4.5
26 | human β-Klotho extracellular domain (aa1–992) fused with a 6 × His tag at the C-terminus (from UniProt Q86Z14) 861R-A | – | – | 15
27 | human β-Klotho extracellular domain (aa1–992) fused with a 6 × His tag at the C-terminus (from UniProt Q86Z14) 862L-A | – | – | 6
28 | human β-Klotho extracellular domain (aa1–992) fused with a 6 × His tag at the C-terminus (from UniProt Q86Z14) 862L-R | – | – | 25
